# Patent US12077763B2, “RNA-based control of powdery mildew” (Greenlight Biosciences, Inc., priority 2021, dated 2024)
# B1: GS3344 (nucleic acid)
# sense: GACUAUUGUCCUGACUAAACUAUAUACCAUCUGCUAACACGAUCCUCAAAGCAAAAUUUUUAACCGAUGAUCAUAAGUCAUGUAAAAGUUGAAAUUUCAACACACACCAAGAAAAAUAGCCUUGGUCUUUCAAUUUACAGCAUCCAUAUGGAUGCUAUUUUCUUAUAUAUUUCACCUACCUCCUGAGAACUGCAUCAAGAUUCGAGGUCGUUUCUUUAUAUAAUCAUGUCAAAUAAUGCAUGAUAAAUGAGUAAGAGGCUCUAGGCAGUCAAACUCAAAGAAUUGUCUUCAAUUGUAUUGUCAUUUUAUCUCAUUUGAUAAUGAGUUGUAGCCGCAACUCAAAUCAUUUUUCAUUUUUUGAAAAUGAAGUAAAAGACCGGUUUAAAAAAUUAAAUAUC
# antisense: GAUAUUUAAUUUUUUAAACCGGUCUUUUACUUCAUUUUCAAAAAAUGAAAAAUGAUUUGAGUUGCGGCUACAACUCAUUAUCAAAUGAGAUAAAAUGACAAUACAAUUGAAGACAAUUCUUUGAGUUUGACUGCCUAGAGCCUCUUACUCAUUUAUCAUGCAUUAUUUGACAUGAUUAUAUAAAGAAACGACCUCGAAUCUUGAUGCAGUUCUCAGGAGGUAGGUGAAAUAUAUAAGAAAAUAGCAUCCAUAUGGAUGCUGUAAAUUGAAAGACCAAGGCUAUUUUUCUUGGUGUGUGUUGAAAUUUCAACUUUUACAUGACUUAUGAUCAUCGGUUAAAAAUUUUGCUUUGAGGAUCGUGUUAGCAGAUGGUAUAUAGUUUAGUCAGGACAAUAGUC
# B2: GS1796: dsRNA trigger SEQ ID NO 211; gene target Putative aldehyde dehydrogenase-like protein C922.07c (nucleic acid)
# DNA: TACCCATCCCTGGCTTAAGTATTGATTTATACATTCTAAAAGAGAGTTCGACGCATATTATGATCTACATACGGAAGTTTGGTAGGATGACGAAAACTCCTAACTTTTAAATTGAAAATTCACCAATCTGACAACATATCTATCTTATTATTGTTGCCCTAATCACTGCCTTTAATGAAGGAATAAAAAATTAAAAGATGCCCGTCACTGACTAACGCTTTTTTTTTAATTAGCCAAATTATCAGTTAACTGCAAACCAGCTACAGCGAGACGGTTTAAGCTCCCATATTTACAAAAACTGACTTGATTTGAGTGTAACCAGCTAGACCAGCTTCTCCTAGCTCCCGTCCAATTCCACTCTGTTTTACACCACCAAATGGGACCTTAAAACTTGAATCATTACTTGAATTAATCCATACCATGCCTGATTCAATTTTTCGCGCTACCCGATGAGCCCTCGTAATATCCTTGGTAAATACTGCACTACCAAGGCCATAGGTAGTATCATTTGCTATCTTTAGGGCTTCTTCTTCTGTTTTAAAGCTATTTATGACAACAAAAGGGCCGAAGACTTCTTCACGAAATATTTTCATAGATG
# B3: GS3346 (nucleic acid)
# sense: GUAGAGUUGAGCUUGGCCCUAAUGGCGUAAAUAAGAUCCAUGAAGUGGGAAACCUUGCUCCUGAAGAACAAGGUCUUUUAAAAGCUGCUCUAGUUGAUUUGUUAAAGAAUAUCGAAAAAGGAAUCAAAUUUGUUAACCAGAACCCCGGUGAAUAAAUAAAAUGUUAUUCAAUUUACAAUCUGUUGUUUUUUGAUCGUGGAUACCUUGAUAUUCAGUAACGAGGGAGAAUCAUUCUCCUGUCCCAAAAAAGUACUAUCUACUAUCUUAAAUUUUAUGGAAUCUUGAAUUUGUCCAAUGUAUCAAUAGAAAAAUUCUUUCAAAUUACAAGUCAAAAGUAUUAUGAAAAUUAAAAAGGACUAAUCCUCUUACAUAGAUAUAUAUAAAUAUA
# antisense: UAUAUUUAUAUAUAUCUAUGUAAGAGGAUUAGUCCUUUUUAAUUUUCAUAAUACUUUUGACUUGUAAUUUGAAAGAAUUUUUCUAUUGAUACAUUGGACAAAUUCAAGAUUCCAUAAAAUUUAAGAUAGUAGAUAGUACUUUUUUGGGACAGGAGAAUGAUUCUCCCUCGUUACUGAAUAUCAAGGUAUCCACGAUCAAAAAACAACAGAUUGUAAAUUGAAUAACAUUUUAUUUAUUCACCGGGGUUCUGGUUAACAAAUUUGAUUCCUUUUUCGAUAUUCUUUAACAAAUCAACUAGAGCAGCUUUUAAAAGACCUUGUUCUUCAGGAGCAAGGUUUCCCACUUCAUGGAUCUUAUUUACGCCAUUAGGGCCAAGCUCAACUCUAC
# B4: GS1798: dsRNA trigger SEQ ID NO 192; gene target Tip elongation aberrant protein 1 (nucleic acid)
# DNA: AAATGTGTACCACCTTCTTGATGTAATTCTGAACGCAGCCAAATCTCCCAAGTCAGATCCATCGTCAGCCCGTCCTCCAAAGACATACATCACATCGTCAACAATTGCTGCAGCATGACCTTCTCTTGGAACCGGTATATATCCTATGCAGTCCAAAAGAGTCCAGGAGTTCGGTATCGGATCATAACACCAAACATCGTTATACCATTGAAGACCATTTGTTCCGCCAAACAAGTAAAGCTTTTCATTATATGTCACAACTGAGTGATTTGTTCTAGCTGATGGTATTTGTCCTACTGGGGGTCCACCATCCTCACTATTTTTAATGAGAATTTCCCACCTGTTCGTAGGGACTTGCAAAAGATTCAAATCAAAAGCCACAAGGTCATTCATAAAATAACCCTCTACTTGCCCCCCGAATACGTAGATTTTAGACCCTAGTATATTGAGAGAATGACCATAACGCCCCGCGGGCCGTGGCCCGGCAGGTATAGCTCTGGACCATTGTCGGGTAGAGGTATTAAGTAAGTAAAGAGTTTCATCTAATACGTCAGAATCGTCCATTTTAGTATCCCCACCATATACAATAAAAGCATTT
# B5: GS3337 (nucleic acid)
# sense: UUUAUUAUGGCACUGGCGUGAAAAUACCUUAUCCCAAGGCAGAUACCGAUAAUGCGAGUGCUCAUGGAUAUACAAACAUUAAGGGCGGUAAUCCGGAAGGACGAGCUUUUCACCAUGGUAGACUAAUAUCUCAGCUCCGUAGAUGCUGCUCCCAGAACCCGAACAUCAAAAUUGUUGAAACGCUGGUUACAGAGACUAUUACGAAUCCUCAAACCCAAACUGUAAUUGGCGUAAGGUCAGAGACAAUGAAUGAUAAAACAGGCAAAAGAGAAGCCGACUACUAUUUGGGAGAUCUCACAAUUAUCGCCGAUGGAUAUGCAUCUAAAUUCCGAAAGCAGUAUAUAGACAAGUCACCCAUCGUAAAAAGCAAAUUCUAUGCUUUAGAGCUGAUAGAUU
# antisense: AAUCUAUCAGCUCUAAAGCAUAGAAUUUGCUUUUUACGAUGGGUGACUUGUCUAUAUACUGCUUUCGGAAUUUAGAUGCAUAUCCAUCGGCGAUAAUUGUGAGAUCUCCCAAAUAGUAGUCGGCUUCUCUUUUGCCUGUUUUAUCAUUCAUUGUCUCUGACCUUACGCCAAUUACAGUUUGGGUUUGAGGAUUCGUAAUAGUCUCUGUAACCAGCGUUUCAACAAUUUUGAUGUUCGGGUUCUGGGAGCAGCAUCUACGGAGCUGAGAUAUUAGUCUACCAUGGUGAAAAGCUCGUCCUUCCGGAUUACCGCCCUUAAUGUUUGUAUAUCCAUGAGCACUCGCAUUAUCGGUAUCUGCCUUGGGAUAAGGUAUUUUCACGCCAGUGCCAUAAUAAA
# B6: GS3335 (nucleic acid)
# sense: UUGAGUACAGAGUAGUAGUAAUCUAUUUACAUGAAUUACAAGCUUGUACGGAUGAAUGUUUGUCAUAAGCCUACUCAUCUUUCAUGGCGAAUUUCCCAGGCGGCUAACUACUCUAAUUUGUGAGAGGCAUGAAAGUAAUGAUAGAUUUUCUCUAUGUAUAAUAAAUAGUACUCGUAUUUUAAUCAUUCAAACCCUAGUGAUAUCUUUUGUACUCUUCUCUUAUCAAAUUACAUCAAGUUCAUUCCGUCAUUUCUCGUUAUAUAUGACAUAUAAAGCAUUCCAUUCGCAUGAUAGAAAAUAAGUAAUAUGUAUAAUGACUCAAAGCCUUCACCCCAUAGCCAAAAAGUUGGGUUUAUAGUGAAACUUGUGACGUAGAGGGGAUUAAUAUCGCAUUUUCU
# antisense: AGAAAAUGCGAUAUUAAUCCCCUCUACGUCACAAGUUUCACUAUAAACCCAACUUUUUGGCUAUGGGGUGAAGGCUUUGAGUCAUUAUACAUAUUACUUAUUUUCUAUCAUGCGAAUGGAAUGCUUUAUAUGUCAUAUAUAACGAGAAAUGACGGAAUGAACUUGAUGUAAUUUGAUAAGAGAAGAGUACAAAAGAUAUCACUAGGGUUUGAAUGAUUAAAAUACGAGUACUAUUUAUUAUACAUAGAGAAAAUCUAUCAUUACUUUCAUGCCUCUCACAAAUUAGAGUAGUUAGCCGCCUGGGAAAUUCGCCAUGAAAGAUGAGUAGGCUUAUGACAAACAUUCAUCCGUACAAGCUUGUAAUUCAUGUAAAUAGAUUACUACUACUCUGUACUCAA
# B7: GS3343 (nucleic acid)
# sense: CUAGCACUUACGAGCACGUCUCUUUGAAUUCAACUAGAGACUCACAAUUAUACCUUCCUCCUAUUAAAUCUUUAGUAUUGGAUACGAAAAAUGAGGGAAGUUAUUAGUGUUAAUGUUGGCCAAGCUGGGUGCCAAAUAGCAAACUCUUGCUGGGAGCUCUAUUGCCUUGAGCAUGGUAUACAGCCUGAUGGUUACUUAACGGAGAAGCGCAAGGCCGCCGAACCUGACGAAGGUUUCAGCACUUUUUUUUCAGAGACUGGUCAGGGAAAAUACGUACCUAGAACUAUUUAUUGUGAUCUUGAACCAAAUGUAGUCGAUGAAGUUCGUACGGGUACUUAUCGUAGCUUAUUCCACCCCGAGCAAAUGAUCACCGGAAAAGAAGAUGCAUCAAACAAUUA
# antisense: UAAUUGUUUGAUGCAUCUUCUUUUCCGGUGAUCAUUUGCUCGGGGUGGAAUAAGCUACGAUAAGUACCCGUACGAACUUCAUCGACUACAUUUGGUUCAAGAUCACAAUAAAUAGUUCUAGGUACGUAUUUUCCCUGACCAGUCUCUGAAAAAAAAGUGCUGAAACCUUCGUCAGGUUCGGCGGCCUUGCGCUUCUCCGUUAAGUAACCAUCAGGCUGUAUACCAUGCUCAAGGCAAUAGAGCUCCCAGCAAGAGUUUGCUAUUUGGCACCCAGCUUGGCCAACAUUAACACUAAUAACUUCCCUCAUUUUUCGUAUCCAAUACUAAAGAUUUAAUAGGAGGAAGGUAUAAUUGUGAGUCUCUAGUUGAAUUCAAAGAGACGUGCUCGUAAGUGCUAG
# System: E. necator
# Experiment: Leaf disc assay, dry inoculum (settling tower), decrease in disease severity / hyphal growth (Example 2)
# Settings: decrease in disease severity (hyphal growth) relative to untreated control, value ± SE; for % decrease =/− SE TP1: time point 1 (untreated control hyphal growth ≥50%); for % decrease =/− SE TP2: time point 2
Molecule,% decrease =/− SE TP1 [%],% decrease =/− SE TP2 [%]
B1,1 ± 7,
B2,,1 ± 8
B3,3 ± 6,
B4,44 ± 4,47 ± 5
B5,19 ± 5,15 ± 7
B6,12 ± 6,
B7,7 ± 6,
